Measured values: patent publication US12533420B2 (NBE-Therapeutics AG, priority 2018, dated 2026)

Assays:
Format in all cases: biochemical
[1] = system: FITC-labelled LPXTGE, DNPNTGDE, ENPXTNAGT, KLPXTASN and ALAXTGSE peptides; assay: Sortase activity assay, gel-based, FITC-labelled peptide substrates; settings: conjugation to 60 kDa Gly6 protein, 25° C., 6 to 24 hours, FITC emission
Protocol: The reaction was performed at 25° C. for 6 to 24 hours, and stopped by addition of reducing SDS-PAGE loading buffer, followed by 5 min. incubation at 95° C. Reaction products were loaded on a 12% SDS-PAGE gel and run according to standard protocols. Labelled reaction products were visualized by FITC emission using the FLA-9000 Imager from Fujifilm, and quantified using ImageJ software.

[2] = system: FITC-labelled LPQTGE peptide and GGGK-biotin; assay: Optimization of sortase conjugation reaction conditions, HPLC-based assay; settings: initial rate (samples up to 3 hours), RP-HPLC, pH 8.5, NaCl, 25° C.
Protocol: The reaction was performed at 25° C. over a period of 24 hours (with 6 samplings in the period up to 3 hours), independently varying the following parameters: • pH over a range of 4 to 11 (using a mixture of boric and citric acid, along with phosphate buffer to achieved the desired pH), while the concentration of NaCl at 500 mM; • NaCl concentration over a range of 0 to 3 M, while maintaining the pH at 8.5 (using 50 mM of sodium phosphate to establish the desired pH).
The reaction was stopped by adding 95 μL of 0.05 M HCl per 5 μL of reaction mixture. Reaction products were loaded into XBridge C18 HPLC columns equilibrated in 0.1% NH4OH in 5% methanol. Elution was performed with a linear gradient from 0 to 100% of 0.1% NH4OH in 95% methanol over 10 mL at flow rate of 0.5 mL/min and a temperature of 30° C. Eluted peptides were detected by absorbance at 497 nm and fluorescence at 522 nm (excitation at 497 nm) and peak areas were quantified.

[3] = system: self-quenching peptide Dabcyl-QALPQTGET-Edans and triglycine; assay: Optimization of sortase conjugation reaction conditions, fluorescence assay; settings: initial rate, temperature varied 15 to 45° C., pH 8.5, 500 mM NaCl
Protocol: Reactions were performed over a period of 1 hour, varying the reaction temperature between 15 and 45° C. and measuring fluorescence over time (using a plate reader or fluorescence spectrometer, with excitation at 350 nm and emission at 495 nm).
Initial rate of sortase F-mediated ligation at different temperatures was evaluated based on regression of the fluorescence over time.

B1: sortase F: recombinant sortase F enzyme from P. acnes KPA171202, with N-terminal MS peptide and C-terminal TwinStrep-comprising tag (protein)
chain: TTTSSTSGIPAASAAKKGPVPAGCMKTPKPIVPVKYSIDGMKASAKVLSRGVDETGAAGAPPKNDPSSMAWFNQGPKIGSDKGNAVLTAHTYHKGGALGNRLYDKNNGIKKGDIIRLTDKTGQTVCYRYDHDTKVMVKDYNPNSNILYDNNGPAQAAIVICWDYVKKTGEFDSRVIFYTYPVA
modifications: Propionibacterium acnes
With B1 the “substrate peptide on which the enzyme is active” value [1] was “principally active on the LPXTGE”, the “salt concentration optimum for initial sortase F activity rate” value [2] was “above 250 mM” and the “temperature above which the reaction rate decreased” value [3] was “above 40 °C”. For the same molecule, the “temperature optimum of sortase F activity rate” value [3] was “about 25 °C”.
